According to the RNAGym collection of RNA variant scans (doi:10.7554/elife.80360):

B1: Hairpin Ribozyme (parent)
chain: GUCCUCUUUCACGUGCGCGUGAAAGAGAGAAGUGAACCAGAGAAACACACGUUGUGGUAUAUUACCUGGUA

Variants of: B1
Assay: self-cleavage, relative activity (ratio to wild type); higher = more cleavage; co-transcriptional

Variant	self-cleavage
GUCCUCUUUCACGUGCGCGUGAAAGAGAGAAGUGAAGCAGAGAAACACCCGUUGUGGUAUAUUACCUGGUA	0.348
GUCCUCUUUCACGUGCGCGUGAAAGAGAGAAGUGAACCAGAGAAACACGCGUUGUGGUAUAUUACCUGAUA	0.172
GUCCUCUUUCACGUGCGCGUGAAAGAGAGAACUGAACCAGAGAAACACACGUUGUGGUAUAUUACCUGUUA	0.203
GUCCUCUUUCACGUGCGCGUGAAAGAGAGAAGCGAACCAGAGAAACACACGUUGUGGUAUAUUACCAGGUA	0.119
GUCCUCUUUCACGUGCGCGUGAAAGAGAGAACUGAACCAGAGAAACACACGUUGUUGUAUAUUACCUGGUA	0.156
GUCCUCUUUCACGUGCGCGUGAAACAGAGAAGUGAACCAGAGAAACACACGUUGUGGUAUACUACCUGGUA	0.252
GUCCUCUUUCACGGGCGCGUGAAAGAGAGAAGUGAUCCAGAGAAACACACGUUGUGGUAUAUUACCUGGUA	0.311
GUCCUCUUUCACGUGCGCGUUAAAGAGAGAAGUGAACCAGAGAAUCACACGUUGUGGUAUAUUACCUGGUA	0.218
GUCCUCUUUCACGUGCGCGUGAAAGAGAGAAGUGAACCAAAGAAGCACACGUUGUGGUAUAUUACCUGGUA	0.147
GUCCUCAUUCACGUGCGCGUGAAAGAGAGAAGUGAACCAGAGAAACACACGUUGUGGUAUAUUACCUGGGA	0.921
CUCCUCUUUCACGUGCGCGUAAAAGAGAGAAGUGAACCAGAGAAACACACGUUGUGGUAUAUUACCUGGUA	0.109
GUCCUCUUUCACGUGCGCGUGAACGAGAGAAGUGAACCAGAGAAACACACGUUGUGGUAUAUUACCUGCUA	0.218
GUCCUCUUUCACGUGCGCGUGAAAGAGAGAAGUGAACCAGAGAAACACACGUUCUGGUAUUUUACCUGGUA	0.105
GUCCUCUUUCACGUGCGCGUGUAAGAGAGAAGUGGACCAGAGAAACACACGUUGUGGUAUAUUACCUGGUA	0.84
GUCCUCUUUCACGUGCGCGUGAAAGAGAGAAGUGAACCAGAGAAACACACGUUGUGGUAUAUUAACUGGUU	0.7
GUCCUCUUUCACGUGCGGGUGAAAGAGAGAAGUGAACCCGAGAAACACACGUUGUGGUAUAUUACCUGGUA	0.587
GUCCUCUUUCACGUGCGCGUUAAAGAGAGAAGUGAACCAGAGAAACACACGUUGUGGUAUAUUACCGGGUA	0.36
GUCCUCUUUCACGUGCGCGAGAAAGAGAGAAGUGAACCAGAGAAACACACGUUGUGGUCUAUUACCUGGUA	0.0988
GUCCUCUUUCACGUGCGCGUGAAAGAGAGAAGUGAACCUGUGAAACACACGUUGUGGUAUAUUACCUGGUA	0.458

Variant	self-cleavage
GUCCUCUUUCACGUGCGCGUGAAAGAGAGAAGUGAUCCAGAGAAACACACGUUGUGGUAUAUAACCUGGUA	0.207
GUCUUCUUUCACGUGCGCGUGAAAGAGCGAAGUGAACCAGAGAAACACACGUUGUGGUAUAUUACCUGGUA	0.273
GUCCUCUUUCACGUGCGCGUGAAAGAGGGAAGUGUACCAGAGAAACACACGUUGUGGUAUAUUACCUGGUA	1.13
GUCCUCUUUCACGUGCGCGUGAAACAGAGAAGUGAAGCAGAGAAACACACGUUGUGGUAUAUUACCUGGUA	0.225
GUCCUCUUUCACGUACGCGUGAAAGAGAAAAGUGAACCAGAGAAACACACGUUGUGGUAUAUUACCUGGUA	0.118
GUCCUCUUUCACGUGCGCGUGAAAGAGAGAAGUGGACCAGAGAAACACACGUGGUGGUAUAUUACCUGGUA	0.955
GUCCUCUUUCACGUGCGCGUGAAAGAGAGAAGUGAAACAGAGAAACACACGUUGUGGUAUAUUAUCUGGUA	0.261
GUAGUCUUUCACGUGCGCGUGAAAGAGAGAAGUGAACCAGAGAAACACACGUUGUGGUAUAUUACCUGGUA	0.359
GUCCUCUUUCACGUGCGCGUGAAAGAGAGAAGUGAACCAGAGAAUCACUCGUUGUGGUAUAUUACCUGGUA	0.17
GUCCUCUUUCACGUGCGCGUGAAAGAGAGAAGUGAACCAGAGAAACACCCGUUGUGGUAUAUUACCUUGUA	0.118
GUCCUCUUUCACGUGCGCGUGAAAGAGAGAAGUGAACCAGAGAAAUACACGUUGUGGUAUAUUAACUGGUA	0.184
CUCCUCUUUCACGUGCGCGUGAAAGAGAGAAGUGAACCAGAGAAACACACGUUGUGGUAUAUUACCUAGUA	0.362
GUCCGCUUUCACGUGCGCCUGAAAGAGAGAAGUGAACCAGAGAAACACACGUUGUGGUAUAUUACCUGGUA	0.202
GCCCUCUUUCACGUGCGCGUGAAAGAGAGAAGUGAACCCGAGAAACACACGUUGUGGUAUAUUACCUGGUA	0.0668
GUUCUCUUUCACGUGCGCGUGAAAGAGAGAAGUGAAUCAGAGAAACACACGUUGUGGUAUAUUACCUGGUA	0.29
GUCCUCUUUCACGUGCGCGUGAAAGAGAGAAGUGAACCAGAGAGACACACGUUGUGGUAUAUUACCAGGUA	0.161
GUCCUCUUUCACGUGCGCGUGAAAGAGACAAGUGCACCAGAGAAACACACGUUGUGGUAUAUUACCUGGUA	0.104
GUCCUCUUUCACGUGCCCGUGAAAGAGAGAAGUGGACCAGAGAAACACACGUUGUGGUAUAUUACCUGGUA	0.801
GUCCCCUUUCACGUGCGCGUGAAAGAGAGAAGUGAACCCGAGAAACACACGUUGUGGUAUAUUACCUGGUA	0.51
